Here are results for eight molecules from publication PMC8473560, “Molecular basis of C-S bond cleavage in the glycyl radical enzyme isethionate sulfite-lyase” (Cell Chemical Biology, 2021).

The Km is the concentration of substrate that gives half-maximal velocity. As usually defined, the kcat is the number of substrate molecules converted per active site and unit of time at saturation. By stoichiometry N is commonly meant a count of units in the complex or per binding partner.

Series [1] has as its target T1, IslA (isethionate sulfite-lyase) (Bilophila wadsworthia, UniProt E5Y378).
T1 construct: full length, 830 residues, N-terminal His-tag kept (pET-28a), expressed in E. coli BL21(DE3); homodimer
Nature of the series: X-ray crystal structure, […] Å. Format: binding. As to conditions: unactivated enzyme, aerobic, 30 mM sodium isethionate, pH 7.5, 22 °C; active site.

The test system of series [2] is O=S(=O)(O)CCO. Nature of the series: purified protein. As to conditions: IslA activated by IslB and S-adenosylmethionine, anoxic, 30 °C, isethionate 1-50 mM, kcat not normalized to glycyl radical content.
Series [3] has as its system O=S(=O)(O)CCO. Nature of the series: purified protein. Format: biochemical, Bilophila wadsworthia. As to conditions: IslA activated by IslB and S-adenosylmethionine, anoxic, 30 °C, isethionate 1-50 mM, kcat not normalized to glycyl radical content.
Series [4] concerns the molecule itself. Nature of the series: crystal structure; hanging drop vapor diffusion at 22°C, aerobic; unactivated IslA with intact N-terminal His-tag, 7.5 mg/mL in 50 mM HEPES pH 7.5, 50 mM NaCl; glycerol-bound (2.26 Å, P21212) and isethionate-bound (2.70 Å, P212121) crystal forms.

Take `O=S(=O)(O)CCO` [isethionate, 2-hydroxyethanesulfonate]: in series [1], the “X-ray crystal structure, 2.70 Å” value is recorded as “a second IslA structure with the substrate Ise bound was obtained”. For the molecule “IslA (isethionate sulfite-lyase) (Bilophila wadsworthia 3_1_6)”, in the series on O=S(=O)(O)CCO [2], the Km worked out at 8 ± 2 mM.

As to “IslA (isethionate sulfite-lyase) (Bilophila wadsworthia 3_1_6; F682A)”, in the series on O=S(=O)(O)CCO [3], the Km is given as 6.8 ± 0.6 mM and the kcat was 0.0171 ± 0.0004 s⁻¹. In the case of “IslA (isethionate sulfite-lyase) (Bilophila wadsworthia 3_1_6; F682Y)”, in the series on O=S(=O)(O)CCO [3], the Km was 8 ± 1 mM and the kcat came to 0.0074 ± 0.0003 s⁻¹. In the case of “IslA (isethionate sulfite-lyase) (Bilophila wadsworthia 3_1_6; I192A)”, in the series on O=S(=O)(O)CCO [3], the Km was 12 ± 2 mM and the kcat was determined as 0.4 ± 0.02 s⁻¹. Take “IslA (isethionate sulfite-lyase) (Bilophila wadsworthia 3_1_6; W374F)”: in the series on O=S(=O)(O)CCO [3], the Km turned out to be 11 ± 1 mM and the kcat was 0.063 ± 0.003 s⁻¹. The like results for “IslA (isethionate sulfite-lyase) (Bilophila wadsworthia 3_1_6; W374Y)” were, in that order, 16.0 ± 0.9 mM and 0.14 ± 0.003 s⁻¹.

B1: isethionate sulfite-lyase (IslA) from Bilophila wadsworthia 3.1.6 (enzyme)
chain: MTQVAEIKSPHEQRLEDNIAGKEDIYRESHKRVFKLLERFDGQKPAIDVERALYFTQSMAETVGQPLVLRWAKALMNVAKNITVMVQDDQLLLGRCGGHDGRYGILYPELDGDFLDIAVRDLPTRPQSPASISPEDAKIVVEQIAPFWKGRTYHEALNKALPAEVHKLTYDDPDGLISRFIVNETSSFRSSIQWVHDYEVVLKRGFNGLKQEMEEKLAALDPASPVDQVDKRPFIEATILVCDAIVLWAKRHADAARKAAEACADPVRKAELIRMAENAEHVPANPARDFYEAVQSQYFTQMFSRLEQKTGTTISNGRMDQYFYPFYKKDMEAGILTDEKTLEYLECMWVGMAEFIDMYISPAGGAFNEGYAHWEAVTIGGQTPDGRDATNDLTYLFLKSKREFPLHYPDLAARIHSRAPERYLWDVAETIKFGSGFPKLCNDEECIPLYVSKGATFEEALDYAVSGCIEIRMPNRDTYTSGGAYTNFASAVEMALYDGKMKKYGDVQLGIQTGDARKFKSWDEFWNAYVQQHMLLLRTTFIQQYIVIQTRAKHFAQPMGSVLHALCRKHCIDLHQPQIPEGLNFGYFEFMGLGTVIDSLAAIKKLVFEDKKLTMDQLIDALEANFEGYEDIQQLLRTAPCYGNDDEYADEIGRELDRMAVSFAAKYGKEMGINNDARYVPFTSHVPFGKVVSATPNGRVAWFPLADGSSPSHGADHNGPTAILLSNHNTKNYGMRARAARLINVKFTPKCVEGDAGTEKLVQFIRTWCDLKLWHIQFNVINADTLKKAQKDPQKYRNLIVRIAGYSAYFVDLTPDLQNDLIARTGHDQM
notes: Isethionate sulfite-lyase IslA, Bilophila wadsworthia 3.1.6, wild type; expressed from pET-28a-IslA (Peck et al., 2019); It calls the structure native/wild-type and gives '6-830 (of 830 residues)', so the whole protein is likely, but the words 'full length' are not used; also called IsIA; wild-type IslA; source: E. coli BL21(DE3), purified (Ni-NTA, dialysis); not shown: His-tag, N-terminal, kept
Consider B1, for which the “stoichiometry N” value in series [4] is 2.
